Test results taken from patent US20260137799A1, “ANTI-MUC1* ANTIBODY DRUG COMPLEXES AND USES THEREOF” (Minerva Biotechnologies Corporation, priority 2023, published 2026).

Tests used:
T47D-MUC1* 15% [1] = assay: PrestoBlue live/dead cell assay, T47D-MUC1* 15%; type: cell-based, human; details: Presto Blue; 72-120 hour incubation
Description: (§1) Another method of measuring the killing activity of ADCs against target cancer cells is to use the PrestoBlue live/dead cell assay (ThermoFisher). Target cancer cells were seeded in a black-walled, clear-bottom 96-well tissue culture plate at a density of 5000 cells/well (100 μL of a 50,000 cells/mL stock) and incubated overnight in a 37° C./5% CO2 incubator. ADCs were prepared as a 2× solution in corresponding cancer cell growth media and 100 μL of each concentration was added to target cancer cells. As a positive control (100% killing) cancer cells were treated with 1 μM Taxol instead of ADC. After 72 hour-120 hour incubation in a 37° C./5% CO2 incubator, cell viability was measure by fluorescence using the PrestoBlue HS assay (ThermoFisher). Briefly, after the incubation period, 20 μL of PrestoBlue HS solution was added. Fluorescence (Ex 560 nm/Em 590 nm) was recorded after 30-90 min. incubation using a Tecan plate reader. Percentage viability was determined by PrestoBlue HS staining and normalized to 1 μM taxol treated cells.
(§2) The normalized fluorescence values were imported into the graph program, Sigma Plot, data plotted as ADC concentration versus normalized fluorescence signal and curve fitted using a four-parameter Hill equation: f=y0+a*x^b/(c^b+x^b) to calculate IC50 values. IC50 values for the ADCs were generally consistent between the xCELLigence and Presto Blue assays.

T47D [2] = assay: PrestoBlue live/dead cell assay, T47D; type: cell-based, human; details: Presto Blue; 72-120 hour incubation
Description: as §1, §2

HPAF-II = assay: xCELLigence impedance cytotoxicity, HPAF-II; type: cell-based, human; details: xCELLigence; 40-120 hours incubation; read-out: IC50, HPAF-II
Description: (§3) An xCELLigence RTCA MP Instrument (Agilent) was used to assess real-time killing of target cancer cells). In the xCELLigence system, target cancer cells, which are adherent, are plated onto electrode array 96-well plates. Adherent cells insulate the electrode and increase the impedance. The number of adherent cancer cells is directly proportional to impedance. […] Therefore, increasing impedance reflects the growth of the cancer cells and decreasing impedance reflects the killing of the cancer cells.
(§4) Target Cancer cells (Table 9) were seeded onto a multi-electrode well plate at a density of 5000 cells/well (100 μL of a 50,000 cells/mL stock) and incubated for 24 hr in a 37° C./5% CO2 incubator. ADCs were prepared as a 2× solution in corresponding growth media and 100 μL of each concentration was added to target cells. As a positive control (100% cell killing) cells were treated with either 1% triton or 1 μM Taxol instead of ADC. After 40-120 hours incubation in a 37° C./5% CO2 incubator cell killing was assessed. In this assay, impedance is measured in real-time. When the adherent cancer cells are killed and come off the electrode surface, impedance (insulation) decreases.

NCI-H1975 = assay: xCELLigence impedance cytotoxicity, NCI-H1975; type: cell-based, human; details: xCELLigence; 40-120 hours incubation; read-out: IC50, NCI-H1975
Summary of the method: (§5)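 Adherent target cells plated at 5000/well on electrode plates were grown 24 h, then exposed to serially diluted ADCs in growth medium at 37° C/5% CO2. Killing was followed as real-time impedance loss over 40-120 h, normalized to 1% triton or 1 μM Taxol as 100% kill.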

T47D-MUC1* 15% [3] = assay: xCELLigence impedance cytotoxicity, T47D-MUC1* 15%; type: cell-based, human; details: 40-120 hours incubation
Description: as §3, §4

T47D [4] = assay: xCELLigence impedance cytotoxicity, T47D; type: cell-based, human; details: xCELLigence; 40-120 hours incubation; read-out: IC50, T47D
Summary of the method: as §5

T47D-MUC1* [5] = assay: PrestoBlue live/dead cell assay, T47D-MUC1*; type: cell-based, human; details: Presto Blue; 72-120 hour incubation
Description: as §1, §2

H1975 = assay: PrestoBlue live/dead cell assay, H1975; type: cell-based, human; details: Presto Blue; 72-120 hour incubation
Description: as §1, §2

[6] = tested on: T47D-MUC1* xenograft tumors; assay: T47D-MUC1* breast cancer xenograft; type: in vivo, NOD/SCID mice; details: intraperitoneal; MMAE ADCs 5-10 mg/kg Days 7, 14, 20; deruxtecan/exatecan ADCs 20 mg/kg weekly x7
Description: (§6) For breast cancer xenografts, female NOD/SCID mice (weight 18-22 g, 6-8 weeks old, Charles River Laboratories) previously implanted with a 90-day release estrogen pellet (Innovative Research Laboratories) were subcutaneously injected under isoflurane anesthesia (ISOTHESIA, 250 ml (HENRY SCHEIN, NDC: 11695-6776-2) with one million luciferase-positive T47D breast cancer cells expressing low levels of MUC1*(ATCC) or one million luciferase-positive T47D-MUC1* cells overproducing MUC1* using a BD 26G Insulin Syringes with Detachable Needle (Fisher cat: 329652) or BD 28G Lo-Dose U-100 Insulin Syringes (Fisher cat: 329461).
(§7) Tumor volume was measured from bioluminescence images acquired with a Xenogen IVIS-Spectrum system (Perkin Elmer). Mice were injected […] into the scruff of the neck with 150 ul, 30 mg/mL, D-Luciferin (XenoLight™ D-Luciferin Potassium Salt; PerkinElmer P/N 122799), placed under isoflurane anesthesia, and photographed within 10 minutes of the Leciferin injection. Data was expressed graphically as Radiance (photons/sec) as a function of days post-tumor implantation.
(§8) Tumor mass was determined from tumors excised from mice receiving T47D cells on Day 95 and mice receiving T47D-MUC1* cells on Day 96. […]

DU-145 [7] = assay: xCELLigence impedance cytotoxicity, DU-145; type: cell-based, human; details: 40-120 hours incubation
Description: as §3, §4

HPAFII = assay: PrestoBlue live/dead cell assay, HPAFII; type: cell-based, human; details: Presto Blue; 72-120 hour incubation
Description: as §1, §2

DU-145 [8] = assay: PrestoBlue live/dead cell assay, DU-145; type: cell-based, human; details: Presto Blue; 72-120 hour incubation
Description: as §1, §2

HPAFII-MUC1* = assay: PrestoBlue live/dead cell assay, HPAFII-MUC1*; type: cell-based, human; details: Presto Blue; 72-120 hour incubation
Description: as §1, §2

T47D-MUC1* [9] = assay: xCELLigence impedance cytotoxicity, T47D-MUC1*; type: cell-based, human; details: xCELLigence; 40-120 hours incubation; read-out: IC50, T47D-MUC1*
Description: as §3, §4

HPAF-II MUC1* = assay: xCELLigence impedance cytotoxicity, HPAF-II MUC1*; type: cell-based, human; details: xCELLigence; 40-120 hours incubation; read-out: IC50, HPAF-II MUC1*
Description: as §3, §4

T47D xenograft tumors = assay: T47D breast cancer xenograft; type: in vivo, NOD/SCID mice; details: intraperitoneal; MMAE ADCs 5-10 mg/kg Days 7, 14, 20; deruxtecan/exatecan ADCs 20 mg/kg weekly x7
Description: as §6, §7, §8

B1: C2 MC-PEG8-VA-PAB exatecan (conjugate, listed as Mus sp.)
heavy: EVQLEESGGGLVKPGGSLKLSCAASGFTFSGYAMSWVRQTPEKRLEWVATISSGGTYIYYPDSVKGRFTISRDNAKNTLYLQMSSLRSEDTAMYYCARLGGDNYYEYFDVWGAGTTVTVSSAKTTPPSVYAKTTPPSVYPLAPGSAAQTNSMVTLGCLVKGYFPEPVTVTWNSGSLSSGVHTFPAVLQSDLYTLSSSVTVPSSTWPSETVTCNVAHPASSTKVDKKIVPRDCGCKPCICTVPEVSSVFIFPPKPKDVLTITLTPKVTCVVVDISKDDPEVQFSWFVDDVEVHTAQTQPREEQFNSTFRSVSELPIMHQDWLNGKEFKCRVNSAAFPAPIEKTISKTKGRPKAPQVYTIPPPKEQMAKDKVSLTCMITDFFPEDITVEWQWNGQPAENYKNTQPIMDTDGSYFVYSKLNVQKSNWEAGNTFTCSVLHEGLHNHHTEKSLSHSPGK
light: DIVITQSTASLGVSLGQRATISCRASKSVSTSGYSYMHWYQQRPGQPPKLLIYLASNLESGVPARFSGSGSGTDFTLNIHPVEEEDAATYYCQHSRELPFTFGGGTKLEIKRADAAPTVSADAAPTVSIFPPSSEQLTSGGASVVCFLNNFYPKDINVKWKIDGSERQNGVLNSWTDQDSKDSTYSMSSTLTLTKDEYERHNSYTCEATHKTSTSPIVKSFNRNEC
modifications: MC-PEG8-VA-PAB-exatecan
notes: ADC: antibody C2 conjugated via MC-PEG8-VA-PAB linker to exatecan
IC50 (T47D-MUC1* 15% [1]): 25 nM
IC50 (T47D [2]): 153 nM
IC50 (HPAF-II): 86 nM
IC50 (NCI-H1975): 207 nM
IC50 (T47D-MUC1* 15% [3]): 20 nM
IC50 (T47D [4]): 112 nM
IC50 (T47D-MUC1* [5]): 8 nM
IC50 (H1975): 19 nM
growth of T47D-MUC1* xenograft tumors [6]: inhibit the growth
IC50 (DU-145 [7]): 163 nM
IC50 (HPAFII): 180 nM
IC50 (DU-145 [8]): 160 nM
IC50 (HPAFII-MUC1*): 62 nM
IC50 (T47D-MUC1* [9]): 6.2 nM
IC50 (HPAF-II MUC1*): 72 nM
growth of T47D xenograft tumors (T47D xenograft tumors): inhibit the growth
